Among the targets are human LAIR2 (Homo sapiens, UniProt Q6ISS4); LAIR1 from mouse (Mus musculus, UniProt Q8BG84); LAIR1 from rat (Rattus norvegicus, UniProt P0C1X9).
Common to all, as to assay: SPR
For assay [1], the target named is NGM438, humanized IgG1 effector-less monoclonal antibody against LAIR1.
The target in assay [2] is recombinant human LAIR1-his (Homo sapiens, UniProt Q6GTX8).

A word on the Kd: it is the concentration at which binding is half-saturated.

Chain of recombinant human LAIR1-his (Q6GTX8 22-287): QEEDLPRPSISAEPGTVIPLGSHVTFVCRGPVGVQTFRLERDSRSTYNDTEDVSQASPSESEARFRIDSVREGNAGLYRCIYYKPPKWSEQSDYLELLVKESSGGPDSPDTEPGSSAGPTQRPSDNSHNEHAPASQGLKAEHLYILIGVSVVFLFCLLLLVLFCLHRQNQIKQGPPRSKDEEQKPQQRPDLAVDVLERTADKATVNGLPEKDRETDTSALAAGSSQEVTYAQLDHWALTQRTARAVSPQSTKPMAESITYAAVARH
Chain of LAIR1 from rat (P0C1X9 22-263): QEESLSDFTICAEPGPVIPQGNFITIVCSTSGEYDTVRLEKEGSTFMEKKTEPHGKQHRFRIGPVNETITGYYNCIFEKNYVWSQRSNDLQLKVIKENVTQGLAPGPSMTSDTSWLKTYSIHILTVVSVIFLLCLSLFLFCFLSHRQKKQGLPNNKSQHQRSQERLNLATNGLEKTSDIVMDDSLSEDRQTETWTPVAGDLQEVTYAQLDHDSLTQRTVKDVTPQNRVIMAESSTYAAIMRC
Chain of LAIR1 from mouse (Q8BG84 22-263): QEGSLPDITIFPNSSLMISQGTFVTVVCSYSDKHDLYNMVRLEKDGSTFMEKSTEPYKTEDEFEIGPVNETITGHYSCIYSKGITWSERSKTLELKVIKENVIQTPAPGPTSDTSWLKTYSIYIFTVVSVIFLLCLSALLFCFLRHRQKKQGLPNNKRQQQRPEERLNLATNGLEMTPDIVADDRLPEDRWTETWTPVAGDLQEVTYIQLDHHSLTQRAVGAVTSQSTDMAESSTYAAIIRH
Chain of human LAIR2 (Q6ISS4 22-152): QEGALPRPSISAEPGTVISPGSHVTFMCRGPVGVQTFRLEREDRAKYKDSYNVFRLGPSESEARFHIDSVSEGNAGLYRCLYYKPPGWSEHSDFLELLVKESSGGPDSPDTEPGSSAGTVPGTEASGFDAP

“recombinant cynomolgus monkey LAIR1-his (receptor)”: the Kd in assay [1] is 4.28 nM.

B1: NGM438, humanized IgG1 effector-less monoclonal antibody against LAIR1 (antibody, V domains shown)
VH: EVQLVESGGGLVQPGGSLRLSCAASGFTFNINAMNWVRQAPGKGLEWVARIRTKNYNYATFYADSVKDRFTISRDDSKNSLYLQMNSLKTEDTAVYYCVRDRAGFFAYWGQGTTVTVSS
VL: DIQMTQSPSSLSASVGDRVTITCLASQTIGTWLGWYQQKPGKAPKLLIYAATSLAEGVPSRFSGSGSGTDFTLTISSLQPEDFATYYCQQLYSTPLTFGGGTKVEIK
As for B1, the binding result in the assay with human LAIR2, in the assay with LAIR1 from mouse and in the assay with LAIR1 from rat was “no binding” each time. In assay [2], the Kd is 0.26 ± 0.03 nM.

Values taken from paper PMC11293989 (Molecular cancer therapeutics, 2024).
